Source: the supplement of paper PMC11865577

Columns and labels:
Experiment in all cases: pull-down binding Z-score (relative to library population); higher = stronger binding
[1] = test system: TO-3-N3 (biotin conjugate); conditions: RNA library: Library-2
How it was run: (§1)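 Biotin-conjugated small molecule (100 pmol) on streptavidin beads was incubated with 1 μg of heat-folded Cy5- or Cy3-end-labelled RNA library in phosphate/NaCl/KCl buffer at 25 °C for 60 min. Following three washes, RNA was eluted with hot SDS and hybridised at 55.5 °C for 20 h to a DNA barcode microarray. The binding value is a Z-score computed from the library mean and standard deviation, after subtraction of beads without compound and averaging of barcoded replicate probes with the highest and lowest excluded.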

[2] = test system: G-clamp-N3 (biotin conjugate); conditions: RNA library: Library-1 (pre-miRNA loops + repeats)
How it was run: as §1

[3] = test system: TO-N3-2 (biotin conjugate); conditions: RNA library: Library-2
How it was run: as §1

TO-N3 (biotin conjugate) = conditions: RNA library: Library-2
How it was run: as §1

[4] = test system: TO-3-N3-2 (biotin conjugate); conditions: RNA library: Library-2
How it was run: as §1

Sequence	pull-down binding Z-score [1]	pull-down binding Z-score [2]	pull-down binding Z-score [3]	pull-down binding Z-score (TO-N3 (biotin conjugate))	pull-down binding Z-score [4]
GGCACUGGGUAUCGUAGGUGCC [hsa-mir-3116-1]	0.661	2.06	0.718	0.377	0.127
GGCAGAAAUGUC [hsa-mir-8053]	-0.653	0.69	-1.13	-1.13	-0.375
GGCAGGAGGCAGUGAAGUAACUUGC [hsa-mir-3934]	1	-0.848	1.2	1.43	0.583
GGCAGGGGGAGCUGCAGGGCUAUGGGAGGGGCCCCAGCGUCUGA [hsa-mir-1233-2_1233-1]	3.54	2.96	3.08	3.66	2.98
GGCAGGGUCCUCCAGCUCAUUCCUCCUGCC [hsa-mir-6829]	0.564	0.723	0.71	0.491	0.56
GGCAGGUGCCUCCGUGUUGCCGAACCCUCCU [hsa-mir-6761]	0.358	-0.447	1.74	0.998	0.116
GGCAGGUGUGGUUGGAGGAAGCAGCCUGAACCUGCC [hsa-mir-6778]	-0.114	0.663	0.361	0.227	0.333
GGCAGUGGUUCUAAAAGCUGUC [hsa-mir-3618]	0.861	0.498	0.117	0.603	-0.198
GGCAUCAGAGGACAGCCGCCUGGUGCC [hsa-mir-4641]	0.287	0.915	0.46	0.327	-0.0706
GGCAUCCCCAUUGCU [hsa-mir-4304]	0.527	-0.987	0.191	0.343	-0.113
GGCAUCUAGCACAGGCGGUAGAUGCU [hsa-mir-4486]	-0.546	0.983	-0.132	-0.481	-0.34
GGCAUCUAGGCUGUGCACAGUGACGCC [hsa-mir-4749]	-0.604	0.317	0.336	-0.376	-0.421
GGCCACCCAGGGAGUAAGUAGCC [hsa-mir-4480]	2.34	0.515	1.42	2.09	0.908
GGCCAUCUGCUAUUCGUCCACCAACCUGACUUGAUCC [hsa-mir-7111]	-0.0213	0.0541	0.477	0.256	0.0293
GGCCAUCUGGCC [hsa-mir-4252]	-0.403	0.63	-1.01	-0.667	-0.435
GGCCCCAGGAAGAAGGGCCUGGUGGAGCC [hsa-mir-6743]	0.235	2.82	1.51	0.577	0.267
GGCCGGUCAGGCA [hsa-mir-4689]	0.391	1.09	0.682	0.576	-0.106
GGCCGUUUGAGAUGUCC [hsa-mir-3674]	-0.181	-0.962	0.0919	-0.259	-0.132
GGCCUGGGAUUCCUGCCUUCUAGGUC [hsa-mir-8078]	0.742	-0.278	0.307	0.707	-0.0252

Sequence	pull-down binding Z-score [1]	pull-down binding Z-score [2]	pull-down binding Z-score [3]	pull-down binding Z-score (TO-N3 (biotin conjugate))	pull-down binding Z-score [4]
GGCGACUGGUGUCUAAUUUGUUUGUC [hsa-mir-4429]	-0.313	0.682	-0.308	-0.37	-0.265
GGCGCACAGCAGACCCUGCAAUCAUGCC [hsa-mir-3164]	0.966	0.000458	0.621	1.03	0.119
GGCGCGCGAGGCUCCAGGCUCC [hsa-mir-3197]	0.322	2.56	1.92	0.81	0.248
GGCGCUGGGACCCCACUAGGGUGGCGCC [hsa-mir-4488]	1.33	1.6	0.687	1.25	0.254
GGCGCUGUCUUGAGACAUUCGCGCAGUGCA [hsa-mir-3177]	-0.111	-0.296	2.23	0.646	-0.209
GGCGCUUCUCCUUCUGAACAGAGCGCU [hsa-mir-1251]	-0.462	-0.609	-0.171	-0.423	-0.182
GGCGGAGGCAGGCGUGACCGUUUGCC [hsa-mir-4632]	0.432	1.09	1.56	1.11	0.38
GGCGGCUCGGAGUACCUCUGCCGCC [hsa-mir-6869]	0.86	0.238	-0.0185	0.666	-0.0436
GGCGGGCGGCGGUGCCCGUC [hsa-mir-4449]	0.739	1.71	0.91	1.53	0.0801
GGCGGUGAAGCUCC [hsa-mir-4532]	-0.22	0.399	0.727	-0.104	-0.285
GGCGUGGACAACUUGCU [hsa-mir-3943]	-0.271	0.951	0.912	0.131	-0.0337
GGCUCCUGGCGCUGAUGCC [hsa-mir-6886]	0.85	-0.347	1.15	1.15	0.297
GGCUCGUCUGUGUUGCCAAUCGACUC [hsa-mir-1307]	0.723	-0.468	0.866	0.973	0.232
GGCUCUGGGUCCUGCUCCUUAGAGCA [hsa-mir-2467]	0.259	0.344	0.837	0.575	-0.0911
GGCUGCAGGCCCGGCCCCUCUC [hsa-mir-6787]	0.378	0.112	1.59	1.1	0.126
GGCUGCGUGCCACCCGGGCAGCU [hsa-mir-3194]	-0.341	1.93	0.701	-0.112	-0.183
GGCUGCUGGAUUGAAUUAGCUGCA [hsa-mir-1286]	0.023	-0.74	1.15	0.506	0.133
GGCUGGACAGGAGAGGGCUCACCCAGG [hsa-mir-6775]	1.16	0.487	1.77	1.78	0.591
